According to the supplement of paper PMC10724198:
± gives the standard deviation of the averaged measurements.
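Note: PSI is a weighted mean of sequencing reads over stability bins, variants kept only with over 10 reads, mCherry proximal and sfGFP distal, peptide attached via GGGS linker.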

Each sequence was assayed on Saccharomyces cerevisiae (assay: protein stability index of tFT-peptide fusion (C-terminal peptide) (PSI (0-1 scale)); higher = more stable (slower turnover)). Conditions: genetic background: wild type; temperature: 30 C.
Method: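 Multiplexed protein stability (MPS) profiling in S. cerevisiae. Random 12-aa peptides (tFT-X12 library) are fused to the C-terminus of a sfGFP-mCherry tandem fluorescent timer, after mCherry and a GGGS linker. Cells are FACS-sorted into 8 mCherry/sfGFP bins and deep-sequenced. The protein stability index (PSI) is the read-weighted bin average, scaled from 0 (unstable) to 1 (stable). Only peptides with >10 reads are reported; cells were grown at 30 °C in SC-His with glucose.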
AAAWWGPRNRGL was tested, and the protein stability index was 0.6749 ± 0.0056. For AAGLNSWLRERW, the protein stability index was 0.805 ± 0.032. Work on AAIQNRPIQSNP yielded a protein stability index of 0.672 ± 0.027. AALLQAGMPRTR gave a protein stability index of 0.692 ± 0.013. AAPPHLTSHPPL was tested, and the protein stability index was 0.811 ± 0.19. AARRVARTTSFC was tested, and the protein stability index was 0.6728 ± 0.0019. AARSCRCSSLIG showed a protein stability index of 0.774 ± 0.0035. For AAVRCVAEGGAP, the protein stability index was 0.637 ± 0.036. For ACDVPSERAVSG, the protein stability index was 0.628 ± 0.024. ACFFNCFISLPF showed a protein stability index of 0.584 ± 0.048. ACGDRGGLCSEG was tested, and the protein stability index was 0.616 ± 0.066. With ADCLSCRVLIVM the protein stability index was 0.484 ± 0.075. In the case of ADGLSRDKALIV, the protein stability index is reported as 0.598 ± 0.0074. ADLAFAGGPYYG showed a protein stability index of 0.69 ± 0.067. For ADMTRSRYMGRS, the protein stability index was 0.692 ± 0.033. ADQAPVLTVWLP showed a protein stability index of 0.669 ± 0.023. With AELALGIESYLP the protein stability index was 0.683 ± 0.083. AEMGQDGADAGQ was tested, and the protein stability index was 0.676 ± 0.01. With AEPSERSRNSPP the protein stability index was 0.68 ± 0.019. For AEVRRQEGTVGV, the protein stability index was 0.707 ± 0.036. In the case of AEYSTAYRLGIC, the protein stability index is reported as 0.644 ± 0.1. AFCLLSSLASGF gave a protein stability index of 0.759 ± 0.067. AFHTLSGFRRVP was tested, and the protein stability index was 0.673 ± 0.019. For AFLMPFPSRLCV, the protein stability index was 0.5806 ± 0.0052. AFPGCRPFRPLH was tested, and the protein stability index was 0.709 ± 0.056. With AFPHDYCRFFLP the protein stability index was 0.612 ± 0.048. AFPHRLTRGYDQ gave a protein stability index of 0.666 ± 0.038. AFPSISNEVVSV was tested, and the protein stability index was 0.707 ± 0.017. For AFRCGGVPGDFA, the protein stability index was 0.664 ± 0.022. Sequence AFSASLAGSGRS has a protein stability index of 0.736 ± 0.046. AFSGMMSVFREW gave a protein stability index of 0.695 ± 0.049. AGAFVGAPVGGE gave a protein stability index of 0.713 ± 0.026. For AGALFRLPSVFD, the protein stability index was 0.727 ± 0.076. AGASCGGRPDTA gave a protein stability index of 0.607 ± 0.02. In the case of AGCGGIWGLWVL, the protein stability index is reported as 0.723 ± 0.05. For AGCGGRCEAGDR, the protein stability index was 0.67 ± 0.011. Sequence AGFGVGALSRSG has a protein stability index of 0.673 ± 0.041. AGGAAIVERAMK was tested, and the protein stability index was 0.6857 ± 0.003. For AGGDDGAPGTQS, the protein stability index was 0.644 ± 0.015. In the case of AGGGPDGFIRPM, the protein stability index is reported as 0.701 ± 0.014. In the case of AGGKGVGRGWGL, the protein stability index is reported as 0.698 ± 0.051. AGGLGSGGSRER was tested, and the protein stability index was 0.6612 ± 0.0024. In the case of AGGSVFSVLVDE, the protein stability index is reported as 0.665 ± 0.0081. For AGGWLRGWLGVG, the protein stability index was 0.673 ± 0.047. With AGGWRGAEGCGG the protein stability index was 0.782 ± 0.083. In the case of AGQNVWGAGTNE, the protein stability index is reported as 0.712 ± 0.0079. Sequence AGRGGRAGGGWR has a protein stability index of 0.668 ± 0.015. For AGRSCGRHEPPK, the protein stability index was 0.579 ± 0.098. With AGRVCTRGVNEI the protein stability index was 0.786 ± 0.1. Work on AGSAAGGAWSGG yielded a protein stability index of 0.695 ± 0.019. Work on AGSLFEVECNGS yielded a protein stability index of 0.746 ± 0.038. Sequence AGSSIPLPASRA has a protein stability index of 0.705 ± 0.026. Sequence AGSVIPCPASRP has a protein stability index of 0.695 ± 0.029. For AHADISPIHNLH, the protein stability index was 0.627 ± 0.0066. AHGASLCVPPSP was tested, and the protein stability index was 0.512 ± 0.013. AHKSFRMVDGNR was tested, and the protein stability index was 0.678 ± 0.066. AHLLFGFGAPVS showed a protein stability index of 0.714 ± 0.15. Sequence AHPLSVSSFLSF has a protein stability index of 0.671 ± 0.0073. Sequence AHPPPPQLPHPH has a protein stability index of 0.7241 ± 0.0023. In the case of AHWFMPVSCLLV, the protein stability index is reported as 0.838 ± 0.2. AIDGVREDTSVE was tested, and the protein stability index was 0.704 ± 0.18. With AIEKKVNQTPFK the protein stability index was 0.659 ± 0.034. For AIERCCTSRRRR, the protein stability index was 0.701 ± 0.041. AIGSVWACVCCS was tested, and the protein stability index was 0.504 ± 0.095. AIKTVINYRDMM gave a protein stability index of 0.608 ± 0.0024. Sequence AIRTPPTRTPPA has a protein stability index of 0.71 ± 0.049. AISSPVLSYATP showed a protein stability index of 0.657 ± 0.0035. With AKACHGGSTLPG the protein stability index was 0.609 ± 0.045. AKKKKKTKRRKK was tested, and the protein stability index was 0.692 ± 0.07. Work on AKLQQEIVWALD yielded a protein stability index of 0.779 ± 0.048. In the case of AKVKIENKHRRK, the protein stability index is reported as 0.716 ± 0.015. AKWAWPAIVGGC was tested, and the protein stability index was 0.722 ± 0.053. ALASPGLLVFTR gave a protein stability index of 0.673 ± 0.026. ALCGWYMGLFHL was tested, and the protein stability index was 0.646 ± 0.0042. ALFEDWRIGVFS gave a protein stability index of 0.71 ± 0.036. ALFPPPSLRPLP gave a protein stability index of 0.724 ± 0.054. Work on ALFTVGNRPSSL yielded a protein stability index of 0.701 ± 0.021. In the case of ALGVHGKFEWIK, the protein stability index is reported as 0.668 ± 0.066. For ALHPPSPPPPAP, the protein stability index was 0.7313 ± 0.0027. In the case of ALIGMFATVALI, the protein stability index is reported as 0.689 ± 0.099. ALMHVTLAVGLL gave a protein stability index of 0.579 ± 0.0027. With ALPPPPPHPSPS the protein stability index was 0.717 ± 0.019. Work on ALPYPPRFPHCS yielded a protein stability index of 0.645 ± 0.019. For ALRCRPVYHIDG, the protein stability index was 0.658 ± 0.025. For ALRRWWCRGGRI, the protein stability index was 0.813 ± 0.024. ALRSGGAARVRL was tested, and the protein stability index was 0.7776 ± 0.0071. ALSHGPAPRTRS showed a protein stability index of 0.649 ± 0.048. Sequence ALSLPPRLRTFY has a protein stability index of 0.663 ± 0.05. With ALSRSCPSGAFL the protein stability index was 0.727 ± 0.01. For AMLLRCRQGDLI, the protein stability index was 0.675 ± 0.032. AMVATAYINPHE showed a protein stability index of 0.712 ± 0.037. Work on ANELQEIYLGET yielded a protein stability index of 0.6881 ± 0.006. Sequence ANGTLSGSPAPS has a protein stability index of 0.641 ± 0.021. ANKNDHNNQRQA gave a protein stability index of 0.789 ± 0.09. Work on ANVRTCCTSVPV yielded a protein stability index of 0.652 ± 0.037. In the case of APAPELRRSPTP, the protein stability index is reported as 0.707 ± 0.01. With APAPPPGVPPSR the protein stability index was 0.702 ± 0.002. Sequence APASPSFPLSAP has a protein stability index of 0.673 ± 0.025. APCLLNTLRPSP gave a protein stability index of 0.686 ± 0.033. In the case of APEAHYRGCPPH, the protein stability index is reported as 0.681 ± 0.018. In the case of APFPPHPPPPPS, the protein stability index is reported as 0.707 ± 0.043. APFSALFPANSV showed a protein stability index of 0.719 ± 0.15. Sequence APGPCSAPSCGA has a protein stability index of 0.67 ± 0.013. With APGPPPLPHPPT the protein stability index was 0.717 ± 0.022. In the case of APILFRICVRRL, the protein stability index is reported as 0.541 ± 0.046. Work on APIRPPVPPASP yielded a protein stability index of 0.716 ± 0.035. In the case of APLFLPPPSLFF, the protein stability index is reported as 0.6934 ± 0.0052. In the case of APLLTRRLPTAH, the protein stability index is reported as 0.785 ± 0.025. Work on APLTYFKPPTPT yielded a protein stability index of 0.666 ± 0.11. With APPLQLSSPPPS the protein stability index was 0.746 ± 0.051. With APPPAAPALSPR the protein stability index was 0.718 ± 0.096. In the case of APPPAYCPPPPP, the protein stability index is reported as 0.713 ± 0.022. APPPPPALPEYQ showed a protein stability index of 0.685 ± 0.047. In the case of APPPPPDHPFPP, the protein stability index is reported as 0.691 ± 0.08. APPPPPPPCAPS was tested, and the protein stability index was 0.657 ± 0.043. APPPPPSPRRPL showed a protein stability index of 0.708 ± 0.013. Work on APPPPPSRLFPP yielded a protein stability index of 0.672 ± 0.028. Sequence APPPPRPLLPSL has a protein stability index of 0.723 ± 0.047. APPPRLAPTLSS showed a protein stability index of 0.775 ± 0.014. APPPSPPPPPFP was tested, and the protein stability index was 0.67 ± 0.064. APPPVFLPPPPP gave a protein stability index of 0.778 ± 0.039. For APPSPPPPTSHP, the protein stability index was 0.777 ± 0.051. Work on APPSPRPSRPSP yielded a protein stability index of 0.64 ± 0.029. APRLFSPPEPPT showed a protein stability index of 0.702 ± 0.038. In the case of APRLIALPPPTA, the protein stability index is reported as 0.711 ± 0.11. Work on APRPLPPPPSPC yielded a protein stability index of 0.726 ± 0.027. APRTRPSPTLGT was tested, and the protein stability index was 0.724 ± 0.029. In the case of APSCRVPPLPPP, the protein stability index is reported as 0.708 ± 0.046. APSELSSRPFLL showed a protein stability index of 0.707 ± 0.026. With APSFSSPPVPLF the protein stability index was 0.698 ± 0.0085. APSRTPRQPPSH was tested, and the protein stability index was 0.716 ± 0.067. APTPPPRISAWL showed a protein stability index of 0.687 ± 0.019. In the case of APTVPVPPSPDA, the protein stability index is reported as 0.705 ± 0.077. APVRSSIALKSD gave a protein stability index of 0.703 ± 0.035. APVWSINKTRVM was tested, and the protein stability index was 0.671 ± 0.045. In the case of AQSRTCPMPLPA, the protein stability index is reported as 0.719 ± 0.025. With AQTHGGSSLPRP the protein stability index was 0.688 ± 0.028. Sequence ARAAHLASRGLP has a protein stability index of 0.689 ± 0.037. With ARCLSFPSSSSA the protein stability index was 0.654 ± 0.022. ARESGFGGVLEE showed a protein stability index of 0.674 ± 0.028. In the case of ARFSPTLQLTPT, the protein stability index is reported as 0.844 ± 0.13. Sequence ARGCRRWRVLRR has a protein stability index of 0.77 ± 0.25. Work on ARGGIGTCSWGW yielded a protein stability index of 0.743 ± 0.074. ARGSTGLKLRWG gave a protein stability index of 0.706 ± 0.0096. In the case of ARIALGLSALVL, the protein stability index is reported as 0.641 ± 0.05. ARIRDSPVIKTV showed a protein stability index of 0.672 ± 0.019.
